Here are results for seven molecules from patent US20200399391A1 (Sanofi, published 2020).

Experiment [1] has as its target T1, human CD38 (human, UniProt P28907 43-300, limits assumed).
T1 construct: Soluble analyte in SPR; the construct (limits, tags) is not described; also called huCD38
Nature of the experiment: SPR (Biacore), mAb captured on anti-Fc CM5 chip, huCD38 injected; n = 3.

The target of experiment [2] is T1, human CD38. Nature of the experiment: SPR (Biacore), mAb captured on anti-Fc chip, after thermal stress of the mAb (14 days at 40 C); n = 3.
Experiment [3] has as its target T2, FcγRIIIa (CD16a) extracellular domain with V158, C-terminal histag (human, UniProt P08637 17-208).
T2 construct: also called FcγRIIIa 158V; FcγRIIIa-histag; not shown: C-terminal histag
Put plainly: SPR (BIAcore 2000), FcγRIIIa-histag captured on anti-His IgG, mAb 8-256 nM, two-state fit.

Experiment [4] deals with T3, FcγRIIIa 158V expressed on cells (human, UniProt P08637 17-254). Nature of the experiment: cell-based or functional assay.
Experiment [5] concerns the target T3, FcγRIIIa 158V expressed on cells. Put plainly: cell-based or functional assay. This is another data set of the same source.
For experiment [6], the target named is T4, FcγRIIa 131H expressed on HEK cells (human, UniProt P12318 34-317).
T4 sequence: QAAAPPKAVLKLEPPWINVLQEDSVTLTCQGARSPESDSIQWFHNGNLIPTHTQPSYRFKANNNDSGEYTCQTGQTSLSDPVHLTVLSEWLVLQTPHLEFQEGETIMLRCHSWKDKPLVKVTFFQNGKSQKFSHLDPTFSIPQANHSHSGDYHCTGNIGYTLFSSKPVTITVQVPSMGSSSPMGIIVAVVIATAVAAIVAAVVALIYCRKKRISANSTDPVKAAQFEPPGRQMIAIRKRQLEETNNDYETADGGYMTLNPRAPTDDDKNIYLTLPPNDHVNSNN
Put plainly: flow cytometry on HEK293T cells expressing the receptor, FITC anti-human IgG; mean Kd.

The target of experiment [7] is T3, FcγRIIIa 158V expressed on cells. Put plainly: flow cytometry on HEK293T cells expressing the receptor, FITC anti-human IgG; mean apparent Kd.
Experiment [8] shares this target. Nature of the experiment: flow cytometry on HEK293T cells expressing the receptor.
Experiment [9] deals with T4, FcγRIIa 131H expressed on HEK cells. The description is as above.
The target of experiment [10] is T5, FcγRIIb expressed on HEK cells (UniProt P31994 43-310, limits assumed).
T5 construct: whole, on cells; also called HEK293T-FcγRIIb
T5 sequence (looked up): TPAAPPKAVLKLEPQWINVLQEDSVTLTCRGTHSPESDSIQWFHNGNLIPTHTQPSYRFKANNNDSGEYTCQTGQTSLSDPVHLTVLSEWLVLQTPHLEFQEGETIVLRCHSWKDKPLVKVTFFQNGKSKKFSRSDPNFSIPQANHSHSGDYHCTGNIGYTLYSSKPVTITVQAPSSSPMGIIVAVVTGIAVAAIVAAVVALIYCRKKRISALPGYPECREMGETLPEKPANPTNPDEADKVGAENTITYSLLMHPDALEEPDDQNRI
Nature of the experiment: flow cytometry on HEK293T cells expressing the receptor, FITC anti-human IgG; mean Kd.

Experiment [11] concerns the target T6, FcγRI expressed on HEK cells (UniProt P12314 16-374, limits assumed).
T6 construct: whole, on cells; also called HEK293T-FcγRI
The description is as above.

Experiment [12] addresses T3, FcγRIIIa 158V expressed on cells. Nature of the experiment: cell-based or functional assay. This is another data set of the same source.
Experiment [13] concerns the target T5, FcγRIIb expressed on HEK cells. Put plainly: flow cytometry on HEK293T cells expressing the receptor.
Experiment [14] has as its target T6, FcγRI expressed on HEK cells. Described as above.
Experiment [15] deals with T7, FcγRIIa extracellular domain with H131, histag (Biorbyt, batch ORB138408) (human, UniProt P12318 34-217).
T7 construct: Bought protein; also called FcγRIIa H131; not shown: histag
T7 sequence: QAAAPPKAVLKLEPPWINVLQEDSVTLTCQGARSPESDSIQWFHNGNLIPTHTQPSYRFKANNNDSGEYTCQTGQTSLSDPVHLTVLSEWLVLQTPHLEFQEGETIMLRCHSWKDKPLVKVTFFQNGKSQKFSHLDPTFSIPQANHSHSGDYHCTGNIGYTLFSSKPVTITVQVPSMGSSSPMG
Put plainly: AlphaScreen competition (relative IC50): untagged mAb displaces biotinylated anti-CD38 native IgG1 from FcγRIIa-histag.

Experiment [16] addresses T5, FcγRIIb expressed on HEK cells. Nature of the experiment: flow cytometry on HEK293T cells expressing the receptor; the text calls it fold lower affinity.
In experiment [17] the target is T2, FcγRIIIa (CD16a) extracellular domain …. Nature of the experiment: SPR, against mAb 1.

B1: mAb 5 (antibody, human IgG1, kappa, V domains shown)
VH: QVQLVQSGAEVAKPGASVKVSCKASGYTFTDYWMQWVRQAPGQGLEWIGTIYPGDGDTSYAQKFQGRVTMTADTSTSTVYMELSSLRSEDTAVYYCARGDYYGSNSLDYWGQGTLVTVSS
VL: DIVMTQSPDSLAVSLGERATINCKSSQDVSTVLAWYQQKPGQSPRRLIYSASYRYIGVPDRFSGSGSGTDFTLTISSLQAEDVAVYYCQQHYSPPYTFGGGTKLEIKR
notes: Humanized heavy and light chains with engineered Fc; also called anti-CD38 mAb 5; HEAVY CHAIN 5 / LIGHT CHAIN 2
Turning to B1, in [1], the Kd amounted to 0.699 nM, the koff was 0.00188 s⁻¹ and the kon was 2.78e+06 M⁻¹ s⁻¹. In [2], the Kd turned out to be 0.828 nM, the koff was found to be 0.00236 s⁻¹ and the on-rate (kon) was determined as 2.95e+06 M⁻¹ s⁻¹.

B2: mAb 7 (antibody, human IgG1, kappa, V domains shown)
VH: QVQLVQSGAEVAKPGASVKVSCKASGYTFTDYWMQWVKQRPGQGLEWIGTIYPGDGDTGYAQKFQGRVTMTADKSTSTVYMELSSLRSEDTAVYYCARGDYYGSNSLDYWGQGTLVTVSS
VL: DIVMTQSPDSLAVSLGERATINCKSSQDVSTVLAWYQQKPGQSPRRLIYSASYRYIGVPDRFSGSGSGTDFTLTISSLQAEDVAVYYCQQHYSPPYTFGGGTKLEIKR
notes: Humanized heavy and light chains with engineered Fc; also called anti-CD38 mAb 7; HEAVY CHAIN 6 / LIGHT CHAIN 2
In [1], B2 registered a Kd of 0.415 nM, a koff of 0.0013 s⁻¹ and a kon of 3.18e+06 M⁻¹ s⁻¹. For the same molecule, in experiment [2], the Kd was determined as 0.394 nM, the koff was 0.00133 s⁻¹ and the kon worked out at 3.39e+06 M⁻¹ s⁻¹.

B3: mAb 6 (antibody, human IgG1, kappa, V domains shown)
VH: QVQLVQSGAEVAKPGASVKVSCKASGYTFTDYWMQWVRQAPGQGLEWIGTIYPGDGDTSYAQKFQGRVTMTADTSTSTVYMELSSLRSEDTAVYYCARGDYYGSNSLDYWGQGTLVTVSS
VL: DIVMTQSPDSLAVSLGERATINCKSSQDVSTVVAWYQQKPGQSPRRLIYSASYRYIGVPDRFSGSGSGTDFTFTISSLQAEDVAVYYCQQHYSPPYTFGGGTKLEIKR
notes: Humanized heavy and light chains with engineered Fc; also called anti-CD38 mAb 6; HEAVY CHAIN 5 / LIGHT CHAIN 3
For B3, in experiment [1], the Kd is 0.385 nM, the koff was around 0.00119 s⁻¹ and the kon was determined as 3.1e+06 M⁻¹ s⁻¹. In experiment [2], this molecule registered a Kd of 0.346 nM, a koff of 0.00128 s⁻¹ and a kon of 3.86e+06 M⁻¹ s⁻¹.

B4: mAb 8 (antibody, human IgG1, kappa, V domains shown)
VH: QVQLVQSGAEVAKPGASVKVSCKASGYTFTDYWMQWVKQRPGQGLEWIGTIYPGDGDTGYAQKFQGRVTMTADKSTSTVYMELSSLRSEDTAVYYCARGDYYGSNSLDYWGQGTLVTVSS
VL: DIVMTQSPDSLAVSLGERATINCKSSQDVSTVVAWYQQKPGQSPRRLIYSASYRYIGVPDRFSGSGSGTDFTFTISSLQAEDVAVYYCQQHYSPPYTFGGGTKLEIKR
notes: Humanized heavy and light chains with engineered Fc; also called anti-CD38 mAb 8; HEAVY CHAIN 6 / LIGHT CHAIN 3
In experiment [1], B4 returned a Kd of 0.191 nM, a koff of 0.00065 s⁻¹ and a kon of 3.51e+06 M⁻¹ s⁻¹. In experiment [2], this molecule had a Kd of 0.198 nM, a koff of 0.000663 s⁻¹ and a kon of 3.53e+06 M⁻¹ s⁻¹.

B5: mAb 1 (antibody, human IgG1, kappa)
heavy: not shown
light: DIVMTQSHLSMSTSLGDPVSITCKASQDVSTVVAWYQQKPGQSPRRLIYSASYRYIGVPDRFTGSGAGTDFTFTISSVQAEDLAVYYCQQHYSPPYTFGGGTKLEIKRTVAAPSVFIFPPSDEQLKSGTASVVCLLNNFYPREAKVQWKVDNALQSGNSQESVTEQDSKDSTYSLSSTLTLSKADYEKHKVYACEVTHQGLSSPVTKSFNRGEC
notes: also called HEAVY CHAIN 1 / LIGHT CHAIN 1
As to B5, the Kd in experiment [3] was determined as 425 nM; in experiment [6] it was 1180 nM; in experiment [7], 165 nM; in experiment [10], 1300 nM; in experiment [11], 24.2 nM. The “ADCC of RPMI-8226 cells, EC50 (calcein release)” value in experiment [4] was 2.45 ng/mL. For the same molecule, the “ADCC of MOLP-8 cells, EC50 (calcein release)” value in [5] was 3.3 ng/mL. For the same molecule, the “Fold difference in affinity versus mAb 1” value in experiment [8] was 1 fold. Besides, the “difference in affinity versus mAb 1” value in experiment [9], in [13] and in experiment [14] was 1 fold each time. Also, in [12], the “ADCC of KMS-12BM cells, EC50 (calcein release)” value was 41 ng/mL. The IC50 in experiment [15] turned out to be 268 nM.

B6: mAb 2 (antibody, human IgG1, kappa)
heavy: not shown
light: DIVMTQSHLSMSTSLGDPVSITCKASQDVSTVVAWYQQKPGQSPRRLIYSASYRYIGVPDRFTGSGAGTDFTFTISSVQAEDLAVYYCQQHYSPPYTFGGGTKLEIKRTVAAPSVFIFPPSDEQLKSGTASVVCLLNNFYPREAKVQWKVDNALQSGNSQESVTEQDSKDSTYSLSSTLTLSKADYEKHKVYACEVTHQGLSSPVTKSFNRGEC
notes: also called HEAVY CHAIN 2 / LIGHT CHAIN 1
With B6, the Kd worked out at 47 nM in [3], 840 nM in experiment [6], 17.6 nM in [7] and 13.5 nM in experiment [11]. Further, the “ADCC of RPMI-8226 cells, EC50 (calcein release)” value in experiment [4] is 0.09 ng/mL. Also, the “ADCC of MOLP-8 cells, EC50 (calcein release)” value in [5] is 0.1 ng/mL. The entries for the “difference in affinity versus mAb 1” value in experiment [16], in [9] and in experiment [14] were 3.9 fold, 1.4 fold and 1.8 fold, respectively. In experiment [8], the “Fold difference in affinity versus mAb 1” value amounted to 9.4 fold. Further, in [17], the “fold higher affinity than mAb 1” value was found to be 9 fold. Also, the “ADCC of KMS-12BM cells, EC50 (calcein release)” value in experiment [12] is 0.65 ng/mL. In experiment [15], this molecule gave an IC50 of 119 nM.

B7: mAb 4 (antibody, human IgG1, kappa)
heavy: QVQLVQSGAEVAKPGTSVKLSCKASGYTFTDYWMQWVKQRPGQGLEWIGTIYPGDGDTGYAQKFQGKATLTADKSSKTVYMHLSSLASEDSAVYYCARGDYYGSNSLDYWGQGTSVTVSSASTKGPSVFPLAPSSKSTSGGTAALGCLVKDYFPEPVTVSWNSGALTSGVHTFPAVLQSSGLYSLSSVVTVPSSSLGTQTYICNVNHKPSNTKVDKKVEPKSCDKTHTCPPCPAPELLAGPDVFLFPPKPKDTLMISRTPEVTCVVVDVSHEDPEVKFNWYVDGVEVHNAKTKPREEQYNSTYRVVSVLTVLHQDWLNGKEYKCKVSNKALPLPEEKTISKAKGQPREPQVYTLPPSRDELTKNQVSLTCLVKGFYPSDIAVEWESNGQPENNYKTTPPVLDSDGSFFLYSKLTVDKSRWQQGNVFSCSVMHEALHNHYTQKSLSLSPG
light: DIVMTQSHLSMSTSLGDPVSITCKASQDVSTVVAWYQQKPGQSPRRLIYSASYRYIGVPDRFTGSGAGTDFTFTISSVQAEDLAVYYCQQHYSPPYTFGGGTKLEIKRTVAAPSVFIFPPSDEQLKSGTASVVCLLNNFYPREAKVQWKVDNALQSGNSQESVTEQDSKDSTYSLSSTLTLSKADYEKHKVYACEVTHQGLSSPVTKSFNRGEC
notes: also called HEAVY CHAIN 4 / LIGHT CHAIN 1
With B7, the Kd was 47 nM in experiment [3]; 544 nM in experiment [6]; 28.1 nM in experiment [7]; 544 nM in experiment [10]; 15.9 nM in experiment [11]. The “ADCC of RPMI-8226 cells, EC50 (calcein release)” value in experiment [4] is 0.09 ng/mL. For the same molecule, the “ADCC of MOLP-8 cells, EC50 (calcein release)” value in experiment [5] was 0.12 ng/mL. The “difference in affinity versus mAb 1” value in [16] worked out at 1.8 fold; in experiment [9], 2.2 fold; in experiment [14], 1.5 fold. In addition, the “Fold difference in affinity versus mAb 1” value in experiment [8] was found to be 5.9 fold. The “fold higher affinity than mAb 1” value in experiment [17] was 9 fold. Besides, in experiment [12], the “ADCC of KMS-12BM cells, EC50 (calcein release)” value was 0.45 ng/mL. In [15], the half-maximal inhibitory concentration (IC50) is 58 nM.
